{"source": "the RNAGym collection of RNA variant scans (doi:10.1073/pnas.2313332121)", "parents": {"B1": {"name": "TPR 5TU (parent)", "chain": "GGAUCUUCUCGAUCUAACAAAAAAGACAAAUCUGCCACAAAGCUUGAGAGCAUCUUCGGAUGCAGAGGCGGCAGCCUUCGGUGGCGCGAUAGCGCCAACGUUCUCAACUAUGACACGCAAAACGCGUGCUCCGUUGAAUGGAGUUUAUCAUG"}}, "note": "Fewer inactive variants are shown than the library holds.", "data": [{"variants_of": "B1", "experiment": "polymerase ribozyme fitness, log enrichment relative to wild type (log ratio); higher = more active; in vitro selection for triplet polymerase activity", "procedure,_shortened": "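In triplicate, a single round of in vitro selection was run on each mutant library, PCR-built and transcribed, covering one subunit of a heterodimeric triplet polymerase ribozyme. Frozen incubation at −7 °C followed annealing with a biotinylated primer, partner subunit and triplets, and extended constructs were then gel-excised, streptavidin-captured and taken through RT-PCR. Fitness is the logarithm of genotype enrichment over wild-type enrichment, from inverse-variance-weighted replicate averages of Illumina-sequenced inputs and outputs. […] only genotypes with ≥10 input reads and ≥1 read per output were kept.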", "values": [{"variant": "GGAUCUUCUCGCUCUAACAAAAAAGACAAAUCUGCCACAAAGCUUGAGAGCAUCUUCCGAUGCAGAGGCGGCAGCCUUCGGUGGCGCGAUAGCCCCAACGUUCUCAACUAUGACACGCAAAACGCGUGCUCCGUUGAAUGGAGUUUAUCAUG", "note": "[A12C G58C G94C]", "polymerase ribozyme fitness (log ratio)": -1.43}, {"variant": "GGAUCUUCUCGCUCUAACAAAAAAGACAAAUCUGCCACAAAGCUUGAGAGCAUCUUCGGAUGCAGAGGCGUCAGCCUUCGGUGGCGCGAUAGUGCCGACGUUUUCAACUAUGACACGCAAAACGCGUGCUGCGUUGAAUGCAGUUUAUCAUG", "note": "[A12C G71U C93U A97G C103U C131G G141C]", "polymerase ribozyme fitness (log ratio)": "≤ -4.2"}, {"variant": "GGAUCUUCUCGCUCUAACAAAAAAGACAAAUCUGCCACAAAGCUUGAGAGCAUCUUCGGAUGCAGAGGCGGCAGCCUUCGGUGGCGCGAUAGCGCCAACGUUCUCAACUAUGACACGCAAAACGCGUGCUCCCUUGAAUGGAGUAUAUCAUG", "note": "[A12C G133C U145A]", "polymerase ribozyme fitness (log ratio)": -1.11}, {"variant": "GGAUCUUCUCGCUCUAACAAAAAAGACAAAUCUGCCACAAAGCUUGAGAGCAUCUUCGGAUGCAGAGGCGGCAGCCUUCGGUGGCGUGAUAGCGCCAACGUUCUCAACUAUGAUACGCAAAACGCGUGCUCCGUUGAAGGGAGUUUAUCAUG", "note": "[A12C C87U C114U U139G]", "polymerase ribozyme fitness (log ratio)": -3.08}, {"variant": "GGAUCUUCUCGCUCUAACAAAAAAGACAAAUCUGCCACAAAGCUUGAGAGCAUCUUCGGAUGCAGAGGCGGCAGCCUUCGGUGGCCCGAUAGCGCCAACGUUCUCUACUAUGACUCGCAAAACGCGUGCUCCGUUGAAUGGAGAUUAUCAUG", "note": "[A12C G86C A106U A115U U144A]", "polymerase ribozyme fitness (log ratio)": "≤ -4.2"}, {"variant": "GGAUCUUCUCGCUCUAACAAAAAAGACAAAUCUGCCACAAAGCUUGAGAGCAUCUUCGGAUGCAGAGGCGGCAGCCUUCGGUGGCGCGAUAGCGCCAACGUUCUCAACUAUGACACGCAAAACGUGUGCUCCGUUGAAUGGAGUUUAUCAUG", "note": "[A12C C125U]", "polymerase ribozyme fitness (log ratio)": -0.492}, {"variant": "GGAUCUUCUCGCUCUAACAAAAAAGACAAAUCUGCCACAAAGCUUGAGAGCAUCUUCGGAUGCAGAGGCGGCAGCCUUCGGUGGCGCGAUAGCGCCAACGUUCUCAACUAUGACACGCAAAACGCGUGGUCCGUUGAAUGGAGUUUAUCAUG", "note": "[A12C C129G]", "polymerase ribozyme fitness (log ratio)": -3.9}, {"variant": "GGAUCUUCUCGCUCUAACAAAAAAGACAAAUCUUCCACAAAGCUUGAGAUCAUCUUCGGAUGCAGAGGCGGCAGCCUUCGGUGGCGCCAUAGCGCCAUCGUUCUCAACUAUGACACGCAAAACGAGUGCUCCGUUGAAUGGAGUUUAUCAUG", "note": "[A12C G34U G50U G88C A98U C125A]", "polymerase ribozyme fitness (log ratio)": -4.18}, {"variant": "GGAUCUUCUCGCUCUAACAAAAAAGACAAAUCUGCCACAAAGCUUGAGACCAUCUUCGGAUGCAAAGGCGGCAGCGUUCGGUUGCGCGAUAGCGCCAACGUUCUCAACUAUGACACGCAAAACGCGUGCUCCGUUGAAUGGAGUUUAUCAUG", "note": "[A12C G50C G65A C76G G83U]", "polymerase ribozyme fitness (log ratio)": "≤ -4.2"}, {"variant": "GGAUCUUCUCGCUCUAACAAAAAAGACAAAUCUGACACAAAGCUUGAGAGCAUCUUCGGAUGCAGAGGCGGCAGCCUUCGGUGGGGCGAUAGCGCCAACGUUGUCAACUAUGACACGGAAAACGCGUGCUCCGUUGAAUGCAGUUUAUCAUG", "note": "[A12C C35A C85G C103G C118G G141C]", "polymerase ribozyme fitness (log ratio)": "≤ -4.2"}, {"variant": "GGAUCUUCUCGCUCUAACAAAAAAGACAAAUCUGCCACAAAGCUUGAGAGCAUCUUCGGAUGCAGAGGCGGCAGCCUUCGGUGGCGCGAUAGCGCUAACGUUCUCAACUAUGACACGCAAAACGCGUGCUCCGUUGAAUGGAGUUUAUCAUG", "note": "[A12C C96U]", "polymerase ribozyme fitness (log ratio)": -0.42}, {"variant": "GGAUCUUCUCGCUCAAACAAAAAAGACAAAUCUGCCACAAAGCUUGAGAGCAUCUACGGAUGCAGAGGCGGCAGCCUUCGGUGGCGCGAUAGCGCCAACGUUCUCAACUAUGACACGCAAAACGCGUGCUCCGUUGAAUGGAGUUUAUCAUG", "note": "[A12C U15A U56A]", "polymerase ribozyme fitness (log ratio)": -0.709}, {"variant": "GGAUCUUCUCGCUCUAACAAAAAAGACAAAUCUGCCACAAAGCUUGAGAGCAUCUUCGGAUGCAGAGGCGGCAGCCUUCGGUGGCGCGAUAGGGCCAUCGUUCUCAACUAUGACACGCAAAACGCGUGCUCCGUUGAAUGGAGUUUAUCAUG", "note": "[A12C C93G A98U]", "polymerase ribozyme fitness (log ratio)": -3.05}, {"variant": "GGAUCUUCUCGCUCUAACAAAAAAGACAAAUCUGCCAGAAAGCUUGAGAGCAUCUUCGGAUGCAGAGGCGGCAGCCUUCGGUGGAGCGAUAGCGCCAACGUUCUCAACUAUGACAAGCAGAACGCGUGCUCCGUUGAAUGGAGUUUAUCAUG", "note": "[A12C C38G C85A C116A A120G]", "polymerase ribozyme fitness (log ratio)": -1.83}, {"variant": "GGAUCUUCUCGCUCGAACAAAAAAGACAAAUCUGCCACAAAGCUUGAGAGCAUCUACGGAUGCAGAGGCGGCAGUCUUCGGUGGCUCGAUAGCGCCAACGUUCUCAACUAUGACACGCAAAACGCGUGAUCCUUUGAAUGGAGUUUAUCAUG", "note": "[A12C U15G U56A C75U G86U C129A G133U]", "polymerase ribozyme fitness (log ratio)": "≤ -4.2"}, {"variant": "GGAUCUUCUCGCUCUAACAAAAAAGACAAAUCUGCCACAAAGCUUGAGAGCAUCUUCGAAUGCAGAGGCGGCAGCCUUCGGUGACGCGAUAGCGCCAACGUUCUCAACUAUGACACGUAAGCCGCUUGCUCCGUUGAAUGGAGUUUAUCAUG", "note": "[A12C G59A G84A C118U A121G A122C G126U]", "polymerase ribozyme fitness (log ratio)": -3.86}, {"variant": "GGAUCUUCUCGCUCUAACAAAAAAGACAAAUCUGCCACAAAGCUUGAGAGCAUCUUCGGAUGCAGAGGCGGCAGCCUUCGGUGGGGCGAUAGCGCCAACGUUCUCAACUAUGACACGCAAAACGCGUGCUCCGUUGAAUGGAGUUUAUCAUG", "note": "[A12C C85G]", "polymerase ribozyme fitness (log ratio)": -2.59}, {"variant": "GGAUCUUCUCGCUCUAACAAAAAAGACAAAUCUGCCACAAAGCUUGAGAGCAUCUUAGGAUGCAGAGGCGGCAGCCUUCGGUUGCGCGAUAGCGCCAACGUUCUCAACUAUGACACGCAAAACGCGUGCUCCGUUCAAUGGAGUUUAUCAUG", "note": "[A12C C57A G83U G136C]", "polymerase ribozyme fitness (log ratio)": -3.78}, {"variant": "GGAUCUUCUCGCUCCAACAAAAAAGACAAAUCUGCCACAUAGCUUGAGAGCAUCUUCGGAUGCAGAGGCGGCAGCCUUCGGUGGCGCGAUAGCGCCAAGGUUCUCAACUAUGACACGCAAAACGCGUGCUCCGUUGAAUGGAGUUUAUCAUG", "note": "[A12C U15C A40U C99G]", "polymerase ribozyme fitness (log ratio)": -0.411}]}]}
